Assay results: paper doi:10.1101/2023.06.15.545204

Target: BST4-mScarlet-I (Chlamydomonas reinhardtii)
Experiment: Slimfield microscopy with single particle tracking and molecular counting

Work on BST4-mScarlet-I (natural protein) yielded an interval between stoichiometry peaks of 5 and a stoichiometry N of 5.
